Results from patent US20250017962A1 (US Dept. of Health and Human Services, published 2025).

T1: GPC1-hFc (UniProt P35052 24-530, limits assumed)
T1 construct: not shown: human Fc tag (hFc)
T1 sequence (looked up): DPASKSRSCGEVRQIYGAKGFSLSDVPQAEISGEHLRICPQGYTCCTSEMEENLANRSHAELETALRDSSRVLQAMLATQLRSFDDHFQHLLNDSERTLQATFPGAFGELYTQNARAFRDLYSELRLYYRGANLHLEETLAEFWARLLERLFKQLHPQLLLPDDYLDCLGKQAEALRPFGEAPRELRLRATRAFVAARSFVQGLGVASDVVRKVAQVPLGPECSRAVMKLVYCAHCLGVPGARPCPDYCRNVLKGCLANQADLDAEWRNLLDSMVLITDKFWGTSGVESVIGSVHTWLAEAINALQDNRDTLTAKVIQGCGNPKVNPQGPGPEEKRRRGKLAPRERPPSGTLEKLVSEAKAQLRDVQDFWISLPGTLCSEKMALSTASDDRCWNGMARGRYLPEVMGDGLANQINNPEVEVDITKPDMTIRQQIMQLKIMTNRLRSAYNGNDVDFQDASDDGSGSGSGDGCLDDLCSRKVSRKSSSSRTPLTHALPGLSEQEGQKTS


Columns and labels:
[1] = target: T1, GPC1-hFc; assay: flow cytometry, hFc-tagged protein on CAR-expressing Jurkat cells
Protocol: To test antigen specificity and cell binding capacity of the engineered GPC3-targeted CARs, T cell lines (Jurkat) transfected with the CAR constructs were developed and binding to GPC3 tagged with human Fc (GPC3-hFc) was assessed. First, successful transduction (95-98%) of all of the CAR constructs was confirmed using the truncated EGFR marker expressed by the CAR lentivirus. […] All CAR T cells specifically bound to GPC3-hFc (FIG. 1A) and not GPC1-hFc (FIG. 1B) at the same concentrations.

[2] = target: glypican-3 (GPC3) on HCC cell lines Hep3B, Huh7 and HepG2 (human, UniProt P51654 25-580); assay: cell-based or functional assay
Sequence of glypican-3 (GPC3) on HCC cell lines Hep3B, Huh7 and HepG2 (P51654 25-580): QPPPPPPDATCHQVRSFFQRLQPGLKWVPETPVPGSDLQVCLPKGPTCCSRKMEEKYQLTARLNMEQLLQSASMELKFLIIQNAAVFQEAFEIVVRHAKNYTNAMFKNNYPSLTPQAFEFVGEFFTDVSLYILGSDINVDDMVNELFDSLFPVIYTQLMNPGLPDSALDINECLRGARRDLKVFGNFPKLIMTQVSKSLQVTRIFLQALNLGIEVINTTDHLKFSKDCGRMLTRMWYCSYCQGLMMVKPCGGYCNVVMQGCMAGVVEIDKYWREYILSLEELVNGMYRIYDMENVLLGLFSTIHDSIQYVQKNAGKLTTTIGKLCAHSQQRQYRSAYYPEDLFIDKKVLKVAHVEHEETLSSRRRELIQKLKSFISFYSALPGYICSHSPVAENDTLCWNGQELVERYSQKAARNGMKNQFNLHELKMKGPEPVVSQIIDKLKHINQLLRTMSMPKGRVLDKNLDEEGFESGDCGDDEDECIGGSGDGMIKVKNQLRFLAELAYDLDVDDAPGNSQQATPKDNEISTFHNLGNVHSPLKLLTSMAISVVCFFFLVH

| Binder | binding result [1] | potency (killing) relative to HN3-CD8H-CD28TM [2] | killing relative to HN3-CD8H-CD8TM CAR T cells [2] |
| --- | --- | --- | --- |
| hYP7-CD8H-CD8TM CAR (other) HMEVQLVESGGGLVQPGGSLRLSCAASGFTFNKNAMNWVRQAPGKGLEWVGRIRNKTNNYATYYADSVKARFTISRDDSKNSLYLQMNSLKTEDTAVYYCVAGNSFAYWGQGTLVTVSAGGGGSGGGGSGGGGSDIVMTQSPDSLAVSLGERATINCKSSQSLLYSSNQKNYLAWYQQKPGQPPKLLIYWASSRESGVPDRFSGSGSGTDFTLTISSLQAEDVAVYYCQQYYNYPLTFGQGTKLEIKTSTTTPAPRPPTPAPTIASQPLSLRPEACRPAAGGAVHTRGLDFACDIYIWAPLAGTCGVLLLSLVITKRGRKKLLYIFKQPFMRPVQTTQEEDGCSCRFPEEEEGGCELRVKFSRSADAPAYQQGQNQLYNELNLGRREEYDVLDKRRGRDPEMGGKPRRKNPQEGLYNELQKDKMAEAYSEIGMKGERRRGKGHDGLYQGLSTATKDTYDALHMQALPPR | no binding (tested: 1, 2 and 5 µg/mL) | – | – |
| HN3-IgG4H-CD28TM CAR (other, also called HN3-IgG4-CD28TM; HN3-IgGH-CD28TM) HMQVQLVQSGGGLVQPGGSLRLSCAASYFDFDSYEMSWVRQAPGKGLEWIGSIYHSGSTYYNPSLKSRVTISRDNSKNTLYLQMNTLRAEDTATYYCARVNMDRFDYWGQGTLVTVSSTSESKYGPPCPPCPFWVLVVVGGVLACYSLLVTVAFIIFWVKRGRKKLLYIFKQPFMRPVQTTQEEDGCSCRFPEEEEGGCELRVKFSRSADAPAYQQGQNQLYNELNLGRREEYDVLDKRRGRDPEMGGKPRRKNPQEGLYNELQKDKMAEAYSEIGMKGERRRGKGHDGLYQGLSTATKDTYDALHMQALPPR | no binding (tested: 1, 2 and 5 µg/mL) | 10 to 20% | – |

Now from value to binder, other results behind:

| binding result [1] | Binder | potency (killing) relative to HN3-CD8H-CD28TM [2] | killing relative to HN3-CD8H-CD8TM CAR T cells [2] |
| --- | --- | --- | --- |
| no binding (tested: 1, 2 and 5 µg/mL) | HN3-CD8H-CD28TM CAR (other) HMQVQLVQSGGGLVQPGGSLRLSCAASYFDFDSYEMSWVRQAPGKGLEWIGSIYHSGSTYYNPSLKSRVTISRDNSKNTLYLQMNTLRAEDTATYYCARVNMDRFDYWGQGTLVTVSSTSTTTPAPRPPTPAPTIASQPLSLRPEACRPAAGGAVHTRGLDFACDFWVLVVVGGVLACYSLLVTVAFIIFWVKRGRKKLLYIFKQPFMRPVQTTQEEDGCSCRFPEEEEGGCELRVKFSRSADAPAYQQGQNQLYNELNLGRREEYDVLDKRRGRDPEMGGKPRRKNPQEGLYNELQKDKMAEAYSEIGMKGERRRGKGHDGLYQGLSTATKDTYDALHMQALPPR | – | 40% |
| no binding (tested: 1, 2 and 5 µg/mL) | HN3-IgG4H-CD8TM CAR (other) HMQVQLVQSGGGLVQPGGSLRLSCAASYFDFDSYEMSWVRQAPGKGLEWIGSIYHSGSTYYNPSLKSRVTISRDNSKNTLYLQMNTLRAEDTATYYCARVNMDRFDYWGQGTLVTVSSTSESKYGPPCPPCPIYIWAPLAGTCGVLLLSLVITKRGRKKLLYIFKQPFMRPVQTTQEEDGCSCRFPEEEEGGCELRVKFSRSADAPAYQQGQNQLYNELNLGRREEYDVLDKRRGRDPEMGGKPRRKNPQEGLYNELQKDKMAEAYSEIGMKGERRRGKGHDGLYQGLSTATKDTYDALHMQALPPR | – | – |
